Data from patent US20260356958 (published 2026).
Read-outs that look alike come from different tables or passages of the source. Each block holds one binder with its values, some of them ahead of it.

Assays:
Test in all cases: SPR, 25C
hIL-1R3-His [1] = biological target: hIL-1R3-His (human)
hIL-1R3-His [2] = biological target: hIL-1R3-His (human); remark: listed apart in the source
hIL-36R-His [3] = biological target: T1, hIL-36R-His (human)
T1 chain: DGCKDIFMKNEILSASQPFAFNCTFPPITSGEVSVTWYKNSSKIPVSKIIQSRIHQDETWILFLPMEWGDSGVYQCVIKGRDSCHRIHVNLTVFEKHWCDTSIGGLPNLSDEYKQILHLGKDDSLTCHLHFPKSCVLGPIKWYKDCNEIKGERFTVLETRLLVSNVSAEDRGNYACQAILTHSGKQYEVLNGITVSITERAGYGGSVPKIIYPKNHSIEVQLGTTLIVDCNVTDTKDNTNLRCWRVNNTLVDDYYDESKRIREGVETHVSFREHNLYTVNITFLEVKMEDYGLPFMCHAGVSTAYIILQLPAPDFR

hIL-36R-His [4] = biological target: T1, hIL-36R-His
hIL-36R-His [5] = biological target: T1, hIL-36R-His

Chain of hIL-1R3-His (human) (chain, as listed by the source): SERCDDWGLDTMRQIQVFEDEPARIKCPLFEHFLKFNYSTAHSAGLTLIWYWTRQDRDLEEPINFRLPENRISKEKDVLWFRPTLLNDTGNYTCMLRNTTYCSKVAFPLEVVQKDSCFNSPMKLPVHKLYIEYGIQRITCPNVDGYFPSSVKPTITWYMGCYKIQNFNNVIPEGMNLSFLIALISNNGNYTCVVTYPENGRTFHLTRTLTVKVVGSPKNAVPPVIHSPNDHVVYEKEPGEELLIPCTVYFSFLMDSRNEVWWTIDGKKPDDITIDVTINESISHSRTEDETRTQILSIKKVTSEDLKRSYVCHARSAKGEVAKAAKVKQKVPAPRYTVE

B2: Common light chain bispecific antibody, IL-1R3 arm (R1B9VH-h1+L36E9VK) (antibody, V domains shown)
VH: EVQLVESGGGLVQPGGSLRLSCAASGFTFSSYAMSWVRQAPGKGLVWVAEISRGGSHTYYPDTVTGRFTISRDNAKNTLYLQMNSLRAEDTAVYYCARSYGNYPFDYWGQGTTVTVSS
VL: EIVLTQSPGTLSLSPGERATLSCRASQSVIGSYLAWYQQKPGQAPRLLIYSASKLASGIPDRFSGSGSGTDFTLTISRLEPEDFAVYYCQQDTRYPITFGQGTKVEIK
- Kd (hIL-1R3-His [2]): 1.44 nM

B4: Crossmab bispecific antibody, IL-36R arm (antibody, V domains shown)
VH: QVQLVQSGAEVKKPGASVKVSCKASGYSFTSSWIHWVRQAPGQGLEWMGEINPGSGRSNYNENFQGRVTMTVDTSISTAYMELSRLRSDDTAVYYCTVVFYGEPYFPFWGQGTLVTVSS
VL: EIVLTQSPGTLSLSPGERATLSCRASQSVIYSYLAWYQQKPGQAPRLLIYSASKRASGIPDRFSGSGSGTDFTLTISRLEPEDFAVYYCQQHAGIPVTFGQGTKVEIK
- Kd (hIL-36R-His [4]): 0.669 nM

B5: R49E11VH-h3+L26B11VK (antibody, V domains shown)
VH: QVQLVQSGAEVKKPGASVKVSCKASGYSFTSSWIHWVRQAPGQGLEWMGEINPGSGRSNYNENFQGRVTMTVDTSISTAYMELSRLRSDDTAVYYCTVVFYGEPYFPFWGQGTLVTVSS
VL: EIVLTQSPGTLSLSPGERATLSCRASQSVIYSYLAWYQQKPGQAPRLLIYSASKRASGIPDRFSGSGSGTDFTLTISRLEPEDFAVYYCQQHAGIPVTFGQGTKVEIK
- Kd (hIL-36R-His [5]): 2.91 nM

The next lines start with the values.

- Kd (hIL-1R3-His [1]): 0.761 nM
B1: Crossmab bispecific antibody, IL-1R3 arm (antibody, V domains shown)
VH: EVQLVESGGGLVQPGGSLRLSCAASGFTFSSYAMSWVRQAPGKGLVWVAEISRGGSHTYYPDTVTGRFTISRDNAKNTLYLQMNSLRAEDTAVYYCARSYGNYPFDYWGQGTTVTVSS
VL: EIVLTQSPATLSLSPGERATLSCSASSSVSYMYWYQQKPGQAPRLLIYDTSNLASGIPARFSGSGSGTDFTLTISSLEPEDFAVYYCQQWSSYPLTFGQGTKLEIK

- Kd (hIL-36R-His [3]): 1.29 nM
B3: Common light chain bispecific antibody, IL-36R arm (R72B7VH+L36E9VK) (antibody, V domains shown)
VH: QVQLVQSGAEVKKPGASVKVSCKASGYSFTSSWIHWVKQAPGQGLEWMGEINPGNVRSNYNENFRNKVTMTVDTSISTAYMELSRLRSDDTAVYYCTVINYGEPYFASWGQGTLVTVSS
VL: EIVLTQSPGTLSLSPGERATLSCRASQSVIGSYLAWYQQKPGQAPRLLIYSASKLASGIPDRFSGSGSGTDFTLTISRLEPEDFAVYYCQQDTRYPITFGQGTKVEIK
